Literature values as cited in paper PMC11720126.
Read-outs that look alike come from different tables or passages of the source.

Columns and labels:
[1] = biological target: Calmodulin (Homo sapiens) (UniProt P0DP23)
[2] = biological target: Calmodulin (Homo sapiens) (UniProt P0DP23); remark: listed apart in the source
[3] = biological target: Calmodulin (Homo sapiens) (UniProt P0DP23); remark: listed apart in the source
[4] = biological target: Calmodulin (Homo sapiens) (UniProt P0DP23); remark: listed apart in the source

Kd [1]	Kd [2]	Kd [3]	Kd [4]	Substance
0.9 µM	150 µM			STIM2 PBD (from UniProt Q9P246)
		55 µM	0.8 µM	STIM1 PBD (from UniProt Q13586)
